Laboratory results from patent US20240218057A1 (ROCKEFELLER UNIVERSITY, published 2024).

biological target: T1, SARS-COV-2 RBD (SARS-COV-2, UniProt P0DTC2 319-539); test: ELISA, RBD coated
T1 construct: also called WT RBD

Row | Binder | EC50 [ng/mL]
1 | C996 (antibody, V domains shown, IgG; V domains only) VH: EVQLVESGGGLVQPGGSLRLSCVASGFTSTNYDMHWVRQAPGRGLQWVSSIGTAGDTYYPGSVRGRFTISRENAKNSLDLQMNSLRVGDTAVYYCARGQRGYYDRSGYYWGWRAFDIWGQGTMVTVSS VL: SYELTQPPSVSVAPGQTARITCGGNNIGNKSVYWYQQKPGQAPVLVVYDDSGRPSGIPERFSGSNSANTATLTISRVEAGDEADYYCQVWDNNSDQFGGGTKLTVL | 3.07
2 | C979 (antibody, V domains shown, IgG; V domains only) VH: QVQLVESGGGVVQPGRSLRLSCVASGFTFSNYGMHWVRQAPGKGLEWVAVILYDGSDKYYLDSVKGRFTISRDNSKNTLFLQLNSLRAEDTAVYYCAKEGNGYGYQYAGMDVWGQGTTVTVS VL: QSALTQPASVSGSPGQSITISCTGTNSDVGGYDYVSWYQQHPGKAPKLIIFEVINRPSGVSNRFSGSKSGNTASLTISGLRAEDEADYYCCSYTTSTTRVFGGGTKLTVL | 2.54
3 | C998 (antibody, V domains shown, IgG; V domains only) VH: QVQLVQSGAEVKKPGASVKVSCKTSGYTFISYYIHWVRQAPGQGLEWMGIINPDGDNTNYAQKFQGRVTMTRDTSTSTVYMELSSLRFEDTAVYYCARGGAIPALRTAFDIWGQGTMVTVSS VL: DIQMTQSPSTLSASVGDRVTITCRASQSISNWLAWYQQKPGKAPKLLIYKASSLESGVPSRFSGSGSGTEFTLTISSLQPDDFATYYCQEYNSYYFGQGTKLEIK | 2.51
4 | C999 (antibody, V domains shown, IgG; V domains only) VH: QVQLVQSGAEVRRPGASVKVSCKASGYTLTHYYIHWVRQAPGQGLEWVGIINPDGDNTNYAQKFQGRVTMTRDTSTSTVYMELSSLRSEDTAIFYCARGGAIPALRSAFDIWGQGTMVTVSS VL: DIQMTQSPSTLSASVGDRVTITCRASQSINNWLAWYQQKPGKAPKLLIYKASTLESGVPSRFSGSGSGTEFTLTISSLQPDDFATYYCQQYNSYFFGQGTKLEIK | 2.68
5 | C982 (antibody, V domains shown, IgG; V domains only) VH: EVQLVESGGGLVQPGGSLRLSCAASGFTFSNYDMHWVRQPTGGGLEWVSAIGTAGDTYYLASVKGRFTISRENAKNSLSLQMNSLRAGDTAVYYCVRGDTLVQGVIKAYYYYFMDVWGQGITVTVSS VL: DIQMTQSPSSLSASVGDRVTITCRASQNISRYLNWYQQKPGKAPRLLIYAASTLQSGVPSRFSASGSGTDFTLTITNLQPEDFAVYYCQQTYVMPPYTLAQGTKLEIK | 2.56
6 | C978 (antibody, V domains shown, IgG; V domains only) VH: QVQLVQSGAEVKKPGSSVKVSCKASGATFSNYIISWVRQAPGQGLEWMGRTIPLLDIANYAQKFQGRVTITADKSTRIVYMHLGSLTSEDTAVYYCATGKGYSSSSAAYYFDHWGQGTLVTVSS VL: QSVLTQPPSVSGAPGQRVTISCTGTNSNIGAGYDIHWYQQLPGTAPKLLIYGSNNRPSGVPDRFSGSKSGTSASLAITGLQAEDEADYYCQSYDSSLSGSEVFGGGTKLTVL | 2.09
7 | C1006 (antibody, V domains shown, IgG; V domains only) VH: QVQLVQSGAEVRKPGSSVKVSCKASGGPFDQYTFSWVRQAPGQGLEWMARITPVVDLTNYAQKFQGRITIITDKSTSTAYMELSSLRSEDTAIYYCATPLNDYYASGNLGLWGQGTLVTVSS VL: DIQMTQSPSSLSASIGDRVTITCRASQGISYYLAWFQQKPGEAPRSLIYDASSLQSGVPSKFSGSGSGTDFTLTISSLQPEDSATYYCQQYNSYPLTFGGGTKVEIK | 2.04
8 | C1007 (antibody, V domains shown, IgG; V domains only) VH: QVQLVQSGSEMKKPGSSVKVSCKAAGGTLNTHTFSWVRQAPGQGLEWMGRITPTVDLTNYAQKFQGRITITADTSTNTAYLELRRLRSEDTAIYYCATPLNDYYASGNLGLWGQGTLVTVSS VL: DIQMTQSPSSLSASIGDTVTITCRASQGISYYLAWFQRKPGKAPKSLIYDASSLQSGVPSKFSGSGSGTDFTLTISSLQPEDSATYYCQQYSTYPLTFGGGTKVEIK | 3.22
9 | C993 (antibody, V domains shown, IgG; V domains only) VH: EVQLLESGGGLVQPGGSLRLSCAASGFPFSIYAMSWVRQAPGKGLEWVSGMRGTTGTTYYADSVKGRFAISRDNSKNMLHLQMNSLRAEDTAVYYCAKSDHGDYVIGAFDIWGQGTMVTVSS VL: QSALTQPPSASGSPGQSVTISCTGTSGDVGGYNYVSWYQQHPGKAPKLMIYEVSKRPSGVPDRFSGSKSGNTASLTVSGLQAEDEADYYCNSYAGSNNWVFGGGTKLTVL | 2.29
10 | C1000 (antibody, V domains shown, IgG; V domains only) VH: QVQLQESGPGLVKPSQTLSLSCTVSGGSISSDDYYWSWIRQPPGKGLEWIGYIYYSGSTYYNSSLKSRVSISVDTSKNQFSLKLSSVTAADTAVYYCARWKRWLQFLYFDYWGQGTLVTVSS VL: QSALTQPRSVSGSPGQSVTISCTGTSSDVGGYSFVSWYQQHPGKAPKVLIYDVDKRPSGVPDRLSGSKSGNTASLTISGLQAEDEADYYCCSYAGSYTLIFGGGTKLTVL | 3.2
11 | C1003 (antibody, V domains shown, IgG; V domains only) VH: QVQLVESGGGVVQPGRSLRLSCAASGFAFSSYGMNWVRQAPGKGLEWVTTVSSDGNVNYYIDSVKGRFTISRDNSKNTLYLQMNSLRGDDTAVYYCAKGPRFGWSYRGGSGFDIWGQGTMVTVSS VL: DIQMTQSPSSLSASVGDRVTITCQASQDISNYLNWYQQKPGKAPKLLIYDASNLETGVPSRFSGSGSGTDFTFTITSLQPEDIATYYCQQYDNLPITFGQGTRLEIK | 1.82
12 | C981 (antibody, V domains shown, IgG; V domains only) VH: EVQLVESGGGLVQPGGSLRLSCAASGFTFSNYDMHWVRQVTGNGLEWVAAIGTSGDTYYPDSVKGRFTISRENVKNSLFLQMNSLRAGDTAVYYCARGGSSSWLWYFDLWGRGTLV VL: DIQMTQSPSSLSASVGDRVTITCRASQSISSHLNWYQQKPGKVPKLLIYAASTLQSGVPSRFSGSGSGTDFTLTISSLQPEDFATYYCQQSYSMPPVTFGQGTRLEIK | 2.12
13 | C994 (antibody, V domains shown, IgG; V domains only) VH: QVQLQESGPGLVKPSGTLSLTCAVSGVSISNTNWWNWVRQPPGKGLEWIGEIYHTGSARYNPSLRSRVTISVDKSKNQFSLRLNSATAADTAIYYCARAQTPEFGELLYWGQGALVTVSS VL: DIQMTQSPSSLSASVGDRVTITCRASQSITDHLNWYQQKPGKAPKLLIYAASSLQTGVPSRFSGSGSETDFTLTISTLQPEDFATYYCQQSYGPPTYSFGQGTKLEIK | 2.09
14 | C983 (antibody, V domains shown, IgG; V domains only) VH: QVQLVESGGGVVRPGRSLRLSCAASGFTFSKYGMHWVRQAPGKGLECVASIAYDGSDDSYADSVKGRFIISRDNSKNTLYLQMNSLRAADTAVYYCAKVLGSYCSASSCHGQRPDYWGQGTLVTVSS VL: DIQMTQSPSSLSAYVGDRVTITCQASQDISNHLNWYQQKPGKAPNLLIYDASNLETGVPSRFSGSGSGTDFSFTISSLQPEDIATYYCQQYDNVPPWTFGQGTKVEIK | 2.11
15 | C1002 (antibody, V domains shown, IgG; V domains only) VH: EVQLVESGGGLVQPGGSLRLSCAASEFIVSSNYMTWVRQAPGKGLEWVSIMYPGGSTFYADSVKGRFTISRDNSKNTLYLQINRLRAEDTAVYYCARDIAGRLDYWGQGTLVTVSS VL: DIQMTQSPSSLSASVGDRVTITCQASQDINNYLNWYQQKPGKAPKLLIYDASNLETGVPSRFSGSGSGTDFSFTISSLQPEDIATYYCQQYDNLSRLTFGGGTKVEIK | 0.83
16 | C976 (antibody, V domains shown, IgG; V domains only) VH: EVQLVESGGALIQPGGSLRLSCAASGFTVSSNDMTWVRQAPGKGLEWVSVIYTGGGTYHADSAKGRFIISRHNSKNTLSLQMNDLRAEDTAVYYCARLTMTTYYFDSWGQGTLVTVSS VL: SYELTQPPSVSLAPGQTARITCGGNGIGSKSVHWYQQKPGRAPVLVVYDDSVRPSGTPARFSGANSGNTATLTISRVEAGDEADYYCQVWDSFRDHQDWVFGGGTKLTVL | 2.52
17 | C977 (antibody, V domains shown, IgG; V domains only) VH: EVQLVESGGGLVQPGGSLRLSCAASGFTFSNYDMHWVRQVTGKGLEWVSLIGTAADAYYADSVKGRFTISRENAKNSLYLQINSLRAGDTAVYFCARGDSSGLYTFFDYWGQGTLVTVSS VL: DIQMTQSPSSLSASVGDRVTITCRASQSVTRYLNWYQLKPGKAPKLLIYAASSLQSGVPSRFSGSGSGTDFTLTISSLQPEDFATYYCQQSYSTLGLTFGGGTKVEI | 2.13
18 | C984 (antibody, V domains shown, IgG; V domains only) VH: QVQLVQSGTEVKKPGDSVQVSCKTSGYSFTGYYIHWVRQAPGQGLEWMGRINPNSGGTNYAQKFQGRVIMTRDTSITTAFMELTRLRYDDTAVYFCAREPIEGVIGGMIVNYYYMDVWGRGTTVTVSS VL: QSALTQPASVSGSPGQSITISCTGTSSDVGGYYYVSWYQQHPGKAPKLMIYDVSSRPSGVSNRFSGSKSGNTASLTISGLQAEDEADYYCSSYTSSNTLVVFGGGTKLTVL | 2.76
19 | C985 (antibody, V domains shown, IgG; V domains only) VH: QVQLVQSGAEVKKPGASVKVSCKASGYIFTGYYMHWVRQAPGQGLEWMGRINPNSGGSRYAEKFQGRVTMTRDTSIITAFMELRGLKSDDTAVYYCAREPIEAVPAGIIVNYYYMDVWGNGTTVTVSS VL: QSALTQPASVSGSPGQSITISCTGTSSDVGGYNYVSWYQQHPGKAPKLMIYDVTSRPSGVSDRFSGSKSGTTASLTISGLQAEDEADYYCSSFTSAFTLVVFGGGTKLTVL | 3.67
20 | C997 (antibody, V domains shown, IgG; V domains only) VH: EVQLLESGGGLVQPGGSLRLSCAASGFTFSKDAMSWVRQAPGKGLEWVSTVTGSGTNTYYADSVKGRFTISRDNSNNTLYLQMNSLRAEDTAVYYCANHPLGAAEGYYYYYMDVWGKGTTVTVSS VL: EIVLTQSPGTLSLSPGERGTLSCRASQRVPSSQLAWYQQKSGQAPRLLIYGASSRASGIPDRFSGSGSGTDFTLNISRLEPEDFAVYYCQQYGSLRALTFGGGTKVEIK | 3.49
21 | C1001 (antibody, V domains shown, IgG; V domains only) VH: QVQLQESGPGLVKPSQTLSLTCTVSGGSISSGDYYWTWIRQPPGKGLEWIGYIFYSGITYYSPSLKSRLTMSIDTSKSQFSLNLSSVTAADTAVYYCARWKRLLQSLHFDYWGQGILVTVSS VL: QSALTQPRSVSGSPGQSVTISCTGTSSDVGSYDYVSWYQQHPGKAPKVMIYGVDERPSGVPHRFSGSKSGNTASLTISGLQADDEADYFCCFYAGSYTLLFGGGTKVTVL | 3.23
22 | C995 (antibody, V domains shown, IgG; V domains only) VH: EVQLVESGGGLIQPGRSLRLSCTASGFSVGDYAMSWFRQAPGKGLEWVGFLRNQHYGGTAEYAASVKGRFSISTDASKNIVYLQMDSLKTEDTAVYYCARNDRYIVIVPAEMLYWGQGTLVTVSS VL: EIVMTQSPATLSVSPGERATLSCRATESVYSNLAWYQQKPGQAPRLLMYDASTRAPGIPARFSGSGSGTEFTLTISSLQSEDFATYYCQQYSNWPPITFGQGTRLEIK | 3.79
